Reference: paper doi:10.1101/2022.04.29.490041

Target: NSF_(E326Q):GFP (dominant-negative variant of NSF, GFP-tagged) (Arabidopsis thaliana) (UniProt Q9M0Y8)
Test: co-IP

Chain of UniProt Q9M0Y8 (Q9M0Y8 whole entry E326Q): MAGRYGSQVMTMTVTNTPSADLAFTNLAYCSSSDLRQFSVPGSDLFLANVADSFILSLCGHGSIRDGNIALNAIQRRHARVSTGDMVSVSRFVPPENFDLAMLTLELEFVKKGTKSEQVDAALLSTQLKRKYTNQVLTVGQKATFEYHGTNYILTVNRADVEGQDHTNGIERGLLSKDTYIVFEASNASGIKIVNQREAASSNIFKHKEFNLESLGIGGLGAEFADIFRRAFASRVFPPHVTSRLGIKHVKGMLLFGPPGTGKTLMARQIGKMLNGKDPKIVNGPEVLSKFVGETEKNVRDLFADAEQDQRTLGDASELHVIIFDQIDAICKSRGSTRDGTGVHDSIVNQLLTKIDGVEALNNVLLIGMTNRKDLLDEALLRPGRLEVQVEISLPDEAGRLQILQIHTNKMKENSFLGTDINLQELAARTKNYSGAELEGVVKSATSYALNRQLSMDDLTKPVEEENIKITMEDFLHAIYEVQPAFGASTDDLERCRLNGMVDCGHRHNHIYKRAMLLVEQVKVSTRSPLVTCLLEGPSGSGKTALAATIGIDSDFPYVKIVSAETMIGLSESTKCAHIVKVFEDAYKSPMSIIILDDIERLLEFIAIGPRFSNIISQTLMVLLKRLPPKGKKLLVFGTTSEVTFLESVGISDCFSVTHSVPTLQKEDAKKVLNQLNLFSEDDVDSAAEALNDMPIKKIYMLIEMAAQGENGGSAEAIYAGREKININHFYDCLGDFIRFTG

KNOLLE (cytokinesis-specific Qa-SNARE) (natural protein)
fold increase of co-precipitation relative to wild-type NSF: 38 fold
